Where a chain is given by its changes, count along the chain named. Like-named read-outs stand apart in the source and are kept apart here.
B1: N-terminal cleavage product of c-Myc-tagged USP1 (rabbit reticulocyte lysate) (protein)
chain: MPGVIPSESNGLSRGSPSKKNRLSLKFFQKKETKRALDFTDSQENEEKASEYRASEIDQVVPAAQSSPINCEKRENLLPFVGLNNLGNTCYLNSILQVLYFCPGFKSGVKHLFNIISRKKEALKDEANQKDKGNCKEDSLASYELICSLQSLIISVEQLQASFLLNPEKYTDELATQPRRLLNTLRELNPMYEGYLQHDAQEVLQCILGNIQETCQLLKKEEVKNVAELPTKVEEIPHPKEEMNGINSIEMDSMRHSEDFKEKLPKGNGKRKSDTEFGNMKKKVKLSKEHQSLEENQRQTRSKRKATSDTLESPPKIIPKYISENESPRPSQKKSRVKINWLKSATKQPSILSKFCSLGKITTNQGVKGQSKENECDPEEDLGKCESDNTTNGCGLESPGNTVTPVNVNEVKPINKGEEQIGFELVEKLFQGQLVLRTRCLECESLTERREDFQDISVPVQEDELSKVEESSEISPEPKTEMKTLRWAISQFASVERIVGEDKYFCENCHHYTEAERSLLFDKMPEVITIHLKCFAASGLEFDCYGGGLSKINTPLLTPLKLSLEEWSTKPTNDSYGLFAVVMHSGITISSGHYTASVKVTDLNSLELDKGNFVVDQMCEIGKPEPLNEEEARGVVENYNDEEVSIRVGGNTQPSKVLNKKNVEAIGLLGG
B2: c-Myc-tagged USP1 synthesized in rabbit reticulocyte lysate (protein)
chain: MPGVIPSESNGLSRGSPSKKNRLSLKFFQKKETKRALDFTDSQENEEKASEYRASEIDQVVPAAQSSPINCEKRENLLPFVGLNNLGNTCYLNSILQVLYFCPGFKSGVKHLFNIISRKKEALKDEANQKDKGNCKEDSLASYELICSLQSLIISVEQLQASFLLNPEKYTDELATQPRRLLNTLRELNPMYEGYLQHDAQEVLQCILGNIQETCQLLKKEEVKNVAELPTKVEEIPHPKEEMNGINSIEMDSMRHSEDFKEKLPKGNGKRKSDTEFGNMKKKVKLSKEHQSLEENQRQTRSKRKATSDTLESPPKIIPKYISENESPRPSQKKSRVKINWLKSATKQPSILSKFCSLGKITTNQGVKGQSKENECDPEEDLGKCESDNTTNGCGLESPGNTVTPVNVNEVKPINKGEEQIGFELVEKLFQGQLVLRTRCLECESLTERREDFQDISVPVQEDELSKVEESSEISPEPKTEMKTLRWAISQFASVERIVGEDKYFCENCHHYTEAERSLLFDKMPEVITIHLKCFAASGLEFDCYGGGLSKINTPLLTPLKLSLEEWSTKPTNDSYGLFAVVMHSGITISSGHYTASVKVTDLNSLELDKGNFVVDQMCEIGKPEPLNEEEARGVVENYNDEEVSIRVGGNTQPSKVLNKKNVEAIGLLGGQKSKADYELYNKASNPDKVASTAFAENRNSETSDTTGTHESDRNKESSDQTGINISGFENKISYVVQSLKEYEGKWLLFDDSEVKVTEEKDFLNSLSPSTSPTSTPYLLFYKKL
B3: native USP1 complex purified from HeLa nuclear extract (protein)
chain 1: B2 chain
chain 2: not shown
B4: USP1/UAF1 complex (heterodimer) co-expressed in and purified from Sf9 cells, Example 1 (protein)
chain 1: B2 chain with G670A, G671A
chain 2: not shown
B5: USP1 with N-terminal His tag, amino acids 670-71 changed from GG to AA (non-cleavable), purified from Sf9 cells (protein)
chain: B2 chain with G670A, G671A

What was measured:
[1] = target: Ubiquitin-Vinyl Sulfone (U-202; Boston Biochem)
[2] = target: Flag-HA-tagged UAF1, expressed in and purified from HeLa cells
[3] = target: monoubiquitinated Flag-HA-tagged FANCD2 protein purified from hydroxyurea-treated HeLa cells, Q9BXW9
[4] = target: T1, Ubiquitin-7-amido-4-methylcoumarin (U-550; Boston Biochem)
[5] = target: T1, Ubiquitin-7-amido-4-methylcoumarin …; assay: Ub-AMC hydrolysis at 2 nM USP1/UAF1 complex, Lineweaver-Burk plot; standard deviation in brackets
[6] = target: Strep-tagged UAF1-ΔWD2 purified from Sf9 insect cells
[7] = target: UAF1 with engineered C-terminal Strep II tag, purified from Sf9 cells
[8] = target: T1, Ubiquitin-7-amido-4-methylcoumarin …; assay: Ub-AMC hydrolysis at 20 nM USP1, Lineweaver-Burk plot; standard deviation in brackets

Protein | mobility shift in SDS-PAGE with Ub-VS [1] | in vitro deubiquitination of Ub-FANCD2 [3] | Km [4] | Ub-AMC cleavage, fluorescence against time, 10 nM protein [4] | kcat [4] [s⁻¹] | further results
B1 | there was a shift of both the full length USP1 and the N-terminal cleavage product in the presence of Ub-VS |  |  |  |  | amount of the N-terminal cleavage product of c-Myc-USP1 after cycloheximide in reticulocyte lysate (anti-c-Myc immunoblot) [2]: the e-USP1-N-Term. band (about 97 kDa) stays faint from 0 min to 2h in Control and grows stronger from 0 min to 2h with + UAF1
B2 | there was a shift of both the full length USP1 and the N-terminal cleavage product in the presence of Ub-VS |  |  |  |  | 
B3 | a mobility shift of both full length and the N-terminal cleavage product of USP1 was observed, demonstrating enzymatic activity of both polypeptides | the USP1 complex could support this reaction |  |  |  | 
B4 |  | the UAF11USP1 complex readily deubiquitinated the substrate; about half of the substrate was deubiquitinated | decreasing the Km from 1.4 µM to 0.7 µM | rises steeply from about 350 at 0 min to a plateau of about 2000 reached at about 15 min | 0.26 | rate of Ub-AMC conversion V (nM/s) against [S] (µM), 2 nM USP1/UAF1 complex [4]: V rises from about 0.19 nM/s at about 0.4 µM to about 0.43 nM/s at 3 µM; the fitted curve flattens but still rises, no plateau; Km [5]: 0.7 µM
B5 |  | USP1 protein alone was unable to deubiquitinate Ub-FANCD2 | decreasing the Km from 1.4 µM to 0.7 µM | rises slowly and almost linearly from about 130 at 0 min to about 400 at 40 min | 0.014 | Ub-AMC cleavage by 10 nM USP1, fluorescence against time, 10 nM UAF1-ΔWD2 added during the run [6]: no stimulation: the two dark traces (USP1 and USP1 + UAF1-ΔWD2) lie on one another, step to about 240 at about 12 min and keep their slope, reaching about 300 at about 23 min; Ub-AMC cleavage by 2 nM USP1, fluorescence against time, 2 nM UAF1 or buffer added during the run [7]: both traces run together from about 130 to about 165 until about 12 min; then + UAF1 steps to about 245 and rises at once in a straight line beyond 500 at about 23 min, while Control steps to about 185 and reaches only about 215 at 25 min; Ub-AMC cleavage by 10 nM USP1, fluorescence against time, 10 nM UAF1 added during the run [7]: the grey trace USP1 + UAF1 runs with the USP1 traces from about 120 to about 200 until about 12 min, then steps to about 310 and rises in a straight line to about 1200 at about 23 min; kcat on Ub-AMC, UAF1/USP1 complex against USP1 alone [7]: augmenting the kcat value 18-fold; kcat/Km on Ub-AMC, UAF1/USP1 complex against USP1 alone [7]: the kcat/Km is 35-fold higher for the UAF1/USP1 complex compared to USP1 alone; substrate turnover of Ubiquitin-AMC after adding UAF1 in an equimolar amount to USP1 [7]: Addition of UAF1 resulted in an instantaneous and robust increase of substrate turnover; Ub-AMC cleavage, fluorescence against time, 10 nM USP1 alone [4]: slow rise from about 120 at 0 min to about 300 at about 23 min, on one line with USP1 + UAF1-ΔWD2; rate of Ub-AMC conversion V (nM/s) against [S] (µM), 20 nM USP1 [4]: V rises from about 0.09 nM/s at 0.6 µM to about 0.2 nM/s at 3 µM; the fitted curve still rises, no plateau; Km [8]: 1.4 µM

From US20080167229
